# PMC3384324 (Nucleic Acids Research, 2012)
# B1: His6-PfORC1N_(1–238) (domain or fragment, Plasmodium falciparum 3D7, UniProt Q8I615 1-238, looked up)
# chain: MTPKKKIFQNFQANDNEILSPTKKGIKLNVSKLNILNFENTIITKEKTNYEYKASLNKEIDEVLNNNNIINTHNNKKNNLNLYDYNNIKNSTHEFYIDLNEQNKQTIKYNDNKFTPINKKEKYNLDETSSSSISSSLTNISSSLTNISSSLTNISSSLSNSLDEKKKKKKIKKNNSTIINILNNNNNNSNIHHNNKHNIYNKYNISKKPQNKEIHTLPSNHQIKKKSNNTYNTCQQKM
# Target: the molecule itself
# Test: cross-linking
protein,measurement,value
B1,stoichiometry N,2
